Molecular target: murine DLL3.HIS (IPA custom, amino acid 25-477) (mouse) (UniProt O88516)
Test: BLI (Octet), captured on AHC sensor, antigen in solution

murine DLL3.HIS (IPA custom, amino acid 25-477) (mouse), sequence (O88516 25-477 limits assumed, form in doubt): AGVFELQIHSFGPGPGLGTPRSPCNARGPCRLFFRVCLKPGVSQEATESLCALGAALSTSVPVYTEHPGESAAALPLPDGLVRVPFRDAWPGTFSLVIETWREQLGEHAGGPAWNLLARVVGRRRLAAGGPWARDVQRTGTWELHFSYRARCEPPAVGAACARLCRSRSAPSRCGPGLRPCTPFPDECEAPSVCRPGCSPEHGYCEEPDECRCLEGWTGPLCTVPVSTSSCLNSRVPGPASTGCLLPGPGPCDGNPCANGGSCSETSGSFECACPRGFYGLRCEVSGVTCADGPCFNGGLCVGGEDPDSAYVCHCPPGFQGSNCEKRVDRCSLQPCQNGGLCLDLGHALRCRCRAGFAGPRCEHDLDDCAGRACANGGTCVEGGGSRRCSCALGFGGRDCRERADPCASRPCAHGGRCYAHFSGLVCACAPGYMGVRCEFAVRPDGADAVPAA

koff: 0.000267 s⁻¹
kon: 215000 M⁻¹ s⁻¹
B1: DLL3 VHH (Fc fusion, not shown: small tags and cut ends; a dimerising Fc or GST)
chain: EVQLVESGGGEVQPGGSLRLSCAASGSIFSINAMGWYRQAPGKQRELVAGFTGDTNTIYAESVKGRFTISRDNAKNTVYLQMSSLRAEDTAVYYCAADVQLFSRDYEFYWGQGTLVTVKP
